Reference: patent US20090325887A1
One block for each binder: values may come before it.

Target: Cav3.1 channel (α3.1 subunit)
Test: cell-based or functional assay

- inhibition of Cav3.1 current at 30 µM peptide: 0.5%
B1: γ6 TM1a SCR peptide (peptide)
peptide: LLILAVGV

- inhibition of Cav3.1 current at 30 µM peptide: 2.4%
B4: γ1 TM1a peptide (peptide)
peptide: VTLFFILA

The remaining lines, values behind:

B2: γ1 TM1a T12GI16A peptide (peptide)
peptide: VGLFFALA
- inhibition of Cav3.1 current at 30 µM peptide: 29.4%

B3: γ6 TM1a peptide (peptide)
peptide: LGLLVAIV
- amplitude of the fast component (Afast) of the unbinding process after 300 µM peptide (bi-exponential fit of current recovery) (normalized fraction): -0.37
- apparent affinity (Kapp), overall: 50 µM
- dissociation rate estimated from the time constant of Cav3.1 current recovery: 0.167 s⁻¹
- fast time constant for binding (fit of current inhibition): < 9 s
- fast time constant for unbinding (fit of current recovery): < 9 s
- fold increase in affinity between -130 mV and -80 mV holding potential: 3 fold
- inhibition of Cav3.1 current at 30 µM peptide (whole-cell patch clamp, HEK/Cav3.1): 45.3%
- inhibition of Cav3.1 current at 100 µM peptide, -100 mV: 60%
- inhibition of Cav3.1 current at 300 µM peptide: 79.3%
- reversible part of the Cav3.1 current inhibition at 30 µM peptide: 73%
- time constant of the small slower component of the binding and unbinding processes: > 30 s
